target: human transferrin receptor (human) (UniProt P02786); test: MST (Monolith NT.115), dye-labelled protein, receptor titrated
Sequence (P02786 89-760 limits assumed): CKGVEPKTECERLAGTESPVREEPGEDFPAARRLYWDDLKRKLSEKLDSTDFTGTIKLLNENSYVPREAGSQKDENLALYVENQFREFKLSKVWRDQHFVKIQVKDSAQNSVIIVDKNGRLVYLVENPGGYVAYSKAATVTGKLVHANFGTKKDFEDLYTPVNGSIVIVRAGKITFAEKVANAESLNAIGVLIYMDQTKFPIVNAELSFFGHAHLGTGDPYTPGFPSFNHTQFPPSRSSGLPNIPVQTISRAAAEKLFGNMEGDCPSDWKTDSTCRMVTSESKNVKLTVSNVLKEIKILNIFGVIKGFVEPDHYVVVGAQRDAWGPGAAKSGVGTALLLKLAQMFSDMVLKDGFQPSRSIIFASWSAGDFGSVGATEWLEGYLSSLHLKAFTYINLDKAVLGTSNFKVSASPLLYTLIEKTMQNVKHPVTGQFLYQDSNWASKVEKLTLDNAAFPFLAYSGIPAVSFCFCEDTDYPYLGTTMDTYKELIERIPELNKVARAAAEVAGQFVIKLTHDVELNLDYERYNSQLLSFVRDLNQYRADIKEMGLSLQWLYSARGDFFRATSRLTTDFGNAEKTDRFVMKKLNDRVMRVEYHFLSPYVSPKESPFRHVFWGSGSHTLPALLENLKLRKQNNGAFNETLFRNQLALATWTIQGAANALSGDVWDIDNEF

Substance	Kd [nM]
CD-gp100-huHF (from UniProt P02794 1-183)	4.89
BC-AH1-huHF (from UniProt P02794 1-183)	107
CD-AH1-huHF (from UniProt P02794 1-183)	3.45
AB-AH1-huHF (from UniProt P02794 1-183)	10.9
AB-gp100-huHF (from UniProt P02794 1-183)	29.7
DE-AH1-huHF (from UniProt P02794 1-183)	6.11

Reference: patent US20240150417A1
